Measured values as given in patent US20030129186A1.

Biological target: p97 receptor (melanotransferrin receptor, MTf-R) on bovine brain capillary endothelial cells (BBCECs) (bovine)
Assay: cell-based or functional assay

With “recombinant receptor-associated protein (RAP)” the decrease in initial rate of [125I]-p97 transport across BBCEC monolayers with recombinant RAP (25 µg/ml) was greater than 50%.
